Legend:
purified protein [1] = substrate: Nc1ncnc2c1ncn2[C@@H]1O[C@H](COP(=O)(O)OP(=O)(O)OP(=O)(O)O)[C@@H](O)[C@H]1O; experiment: purified protein
purified protein [2] = substrate: N[C@@H](CO)C(=O)O; experiment: purified protein

B1: SARS2 (human mitochondrial seryl-tRNA synthetase, mature form) (Homo sapiens; INS217NLSP/K218R) (protein)
chain: TTEKRNRNLLYEYAREGYSALPQLDIERFCACPEEAAHALELRKGELRSADLPAIISTWQELRQLQEQIRSLEEEKAAVTEAVRALLANQDSGEVQQDPKYQGLRARGREIRKELVHLYPREAQLEEQFYLQALKLPNQTHPDVPVGDESQARVLHMVGDKPVFSFQPRGHLEIGEKLDIIRQNLSPRRLSHVSGHRSYYLRGAGALLQHGLVNFTFNKLLRRGFTPMTVPDLLRGAVFEGCGMTPNANPSQIYNIDPARFKDLNLAGTAEVGLAGYFMDHTVAFRDLPVRMVCSSTCYRAETNTGQEPRGLYRVHHFTKVEMFGVTGPGLEQSSQLLEEFLSLQMEILTELGLHFRVLDMPTQELGLPAYRKFDIEAWMPGRGRFGEVTSASNCTDFQSRRLHIMFQTEAGELQFAHTVNATACAVPRLLIALLESNQQKDGSVLVPPALQSYLGTDRITAPTHVPLQYIGPNQPRKPGLPGQPAVS
- Km (purified protein [1]): 64.69 ± 4.48 µM
- Km (purified protein [2]): 1660 ± 30 µM
